A short description of this data set: yeast display, Sf9 membrane polyspecificity reagent, FACS + sequencing; frameworks hold sequencing errors. Put shortly:
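Galactose induction of a Saccharomyces cerevisiae BJ5465 synthetic nanobody display library ran 36–48 hours. The cells were then stained for 1 hour at 4 °C with 10% biotinylated, detergent-solubilized Sf9 membrane reagent, pulled down on streptavidin microbeads and FACS-sorted into low and high (top ~1%) gates on expression and reagent-binding fluorescence. Labels for polyreactivity follow the gate of origin.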
Turning to “QVQLVESGGGLVQAGGSLRLSCAASGRIFYLNGKGWYRQAPGKERELVAAISSSDDSTYYADSVKGRFTISRDNAKNTVYLQMKSLKPEDTAVYYCAAGYHQVQNYGDAYYWSELYSWGQGTQVTVSS”, the “polyreactivity (PSR sort gate)” value is on record as “low polyreactivity”.

As for “QVQLVESGGGLVQAGGSLRLSCAASGSTLGGSVMGWSRQAPGKERELVASITYSGGSTRYADSVKGRFTISRDNAKNTVYLQMNSLKPEDTAVYYCAAGAQRTYYTYSFRRVGYDYDYWGQGTQVTVSS”, the “polyreactivity (PSR sort gate)” value is recorded as “low polyreactivity”.

As to “QVQLVESGGGLVQAGGSLRLSCAASGRTFSRYAMGWYRQAPGKERELVATINSRAGITNYADSVKGRFTISRDNAKNTVYLQMNSLKPEDTAVYYCAAKGVIISYDTLRYDYWGQATQVTVSS”, the “polyreactivity (PSR sort gate)” value is “high polyreactivity”.

On to “QVQLVESGGGLVQAGGSLRLSCAASGSTFTYNTMGWYRQAPGQERELVAAISSGGSTYYADSVKGRFTFSRDNAKNTVSLQMNSLKPEDTAVYYCAARSRYGESPGYYWGQGTQVTVSS”, for which the “polyreactivity (PSR sort gate)” value was “high polyreactivity”.

Regarding “QVQLVESGGGLVHAGGSLRLSCAPSGFTLVSYAMGWHRKAPGKEREFDAGITDSGGSTYYADSVKGRYTITRDNAKNTFYLQMNSLKPVDTAVYYCKADFAPWDKQDYPYDYDYWGQGTQVTVSS”, the “polyreactivity (PSR sort gate)” value is reported as “low polyreactivity”.

With “QVQLVESGGGLVQAGGSLRLSCAASGIIFYYYGKGWYRQAPGKEREFVAAISTSGGNTYYADSVKGRFTISRDNAKNTVYLQMNSLKPEDTAVYYCAADDWPWGDAGVDYWGQGTQVTVSS”, the “polyreactivity (PSR sort gate)” value is “low polyreactivity”.

For the sequence “QVQLVESGGGLVQAGGSLRLSCAASGFTFNRNAMGWYIQAPGKERELVAAISWSGGSTYYADSVKGRFTISRDNAKNTVYLQMNSLKPEDTAVYYCAKGYRRVYGPFYYWGQGTQVTVSS”, the “polyreactivity (PSR sort gate)” value is listed as “low polyreactivity”.

“QVHLVESGGGLVQAGGSLRLSCADSGRTFGTYAMGWYRQAPGKERELVAAISSGGSTYADSVKGRFTISRDNAKNTVYLQMNSLKPVDTAVYYCNADFSARNYHYYPRRFKYYYWGQGTQVTVSS”: the “polyreactivity (PSR sort gate)” value is given as “high polyreactivity”.

Regarding “QVHLQESGGLVQAGGLRLSCAASGSVSYQEAMGWYPQAPGKERELVATISFGANTNYADSVKGRFTISRDNAKNTVYLQRNCLKPEDTAVYYCAAESLFDDYYGYWGQGTQVTVSS”, the “polyreactivity (PSR sort gate)” value was “low polyreactivity”.

As to “QDQLVESGGGLVQAGGSLRLSCDASGFILETNAMGWYRQAPGKERELVASITSSGSTYYADSVKGRFTISRDNAKNTVYLQMNSLKREVTAVYYCAARRYRSRGRTYGWFRYDYWGQGTQVTVSS”, the “polyreactivity (PSR sort gate)” value is reported as “high polyreactivity”.

Take “QVQLVESGGGLVQAGGSLRLSCAASGSIFGDYARGWYRQAPGKERELVAAISRSGGSTSYADSVKGRFTISRDNAKNTVYLQMNSLKPEDSAVYYCAAYWQRFGYDYWGQGTQVSVSS”: the “polyreactivity (PSR sort gate)” value is “low polyreactivity”.

Take “QVQLVESGGGLVQAEGSLRLSCAASGIIFFHNAMGWYRQAPGKERELVATISRSGGSTYYADSVKGRFTISRDNAKNTVYLQMNSLKPEDTAVYYCAARQSIFYSWTGVEYYYWGQGTQVTVSS”: the “polyreactivity (PSR sort gate)” value is “low polyreactivity”.

Regarding “QVQLVESGGGLVQAGGSLRLSCAASGFIFAQNTMGWYRQAPGKERELVAAITRRGGSTYYADSVKGRFTISRDNAKNTVYLQMNSLKPEDTAVYYCNVAFRSYYTSSLLDYWGQGTQVTVSS”, the “polyreactivity (PSR sort gate)” value was “high polyreactivity”.

As to “QVQLVESGGGLVQAGGSLRLSCAASGFTFTSYAMGWYRQAPGKEREFVAAIRRSGSGTYYADSVKGRFTISRDNAKNNVYLQMNSLKPEDTAVYYCAFVPPRLYYHYDYWGQGTQVTVSS”, the “polyreactivity (PSR sort gate)” value was “high polyreactivity”.

Consider “QVQLLESGGGLVQPGGSLRLSCAASGRTFRLNGMGWNRQAPGKERELVAAITWSGGRTYYADSVKGRFTISRDNAKKTVYVQMNSLTPEDTAVYYCAADFRDGFTSRYGYWGQGTQVTVSS”, for which the “polyreactivity (PSR sort gate)” value is “high polyreactivity”.

In the case of “QVQLVESGGGLVQAGGSLRLSCAASGSTFQKYVMGWYRQAPGKERELVAAISINGVRTYYADSVKGRFTISRDYAKNTVYLQMNSLKPEDTAVFFCNNDTLIRRGSGRGYWGQGTQVNVSS”, the “polyreactivity (PSR sort gate)” value is reported as “high polyreactivity”.

For the sequence “QVQLVESGGGLVQAGGSLRLSCAASGRIFYLYTMAWYRQAPGKERELVAAITWSGGRTFYADSVKGRFTISRDNAKNTVYLQMNSLKPEDTAVYYCAARAYDSVGKYYYWGQGTQVNVSS”, the “polyreactivity (PSR sort gate)” value was “high polyreactivity”.

Regarding “QVHLVESGGGLVQAGGSLRLSCAASGRIFFYYAMGWYRQAPGKERELVAAISSTGGSTNYADSVKGRFTISRDNAKNTVYLQMNSLKPEDTAVYYCNKDLYYAYDYWGQGTQVTVSS”, the “polyreactivity (PSR sort gate)” value is “low polyreactivity”.

Take “QVQLVESGGGLVQAGGSLRLSCAASGYSFVRNAMGWYIQAPGKERELVAAISGSGGSTYYADSVKGRFTISRDNAKNTVYLQMNSLKPEDTAVYYCAADYATVTWRGIAYDYWGQGTQVTVSS”: the “polyreactivity (PSR sort gate)” value is on record as “low polyreactivity”.

In the case of “QVQLVESGGGLVQAGGSLRLSCAASGITLRYYAMGWYRQAPGKERELVAAITYSGTNTRYADSVKGRFTISRDNAKNTVYFQMNSLKPEDTAVYYCAARNGFGSPQMGYWGQGTQVTVSS”, the “polyreactivity (PSR sort gate)” value was “high polyreactivity”.

Consider “QVQLVESGGGLVQAGGSLRLSCAASGITFELNTMGWYRQAPGKEMELVAVITQNGGSTYYADSVKGRFTISRDNAKNTVYLQMNSLKPEDTAVYYCAATYVWSYLYLIRFYYWGQGTQVTVSS”, for which the “polyreactivity (PSR sort gate)” value is given as “high polyreactivity”.

In the case of “QVQLVESGGGLVQAGGSLRLSCAASGSTFKIYAMGWYRPAPGKERELVAAITRGASTYADSVKGRFTISRDNAKNTVYLQMNSLKPEDTAVYYCAAYRRPSRSGDKPIGFDYWGQGTQVTVSS”, the “polyreactivity (PSR sort gate)” value is on record as “high polyreactivity”.

Take “QVQLVESGGGLVQAGGSLRLSCAASGRIFRYNAMGWYRQAPGKERELVAAISRGDGSTYYADSVKGRFTISRDNAKNTVYLQMNILKPEDTAVYYCAAAWSFIYFQHPAFKYDYWGQGTQVTVSS”: the “polyreactivity (PSR sort gate)” value is “low polyreactivity”.

Take “QVQLVESGGGLVQEGGSLRLTCAASGSTFSDYAMGWYRQAPGKERELVAAISKRGGRTYYADSVKGRFTISRDNEKNTVYLQMNSLKPEDTAVYDCAADLPNAKWYGYDYWGQGTQVTVSS”: the “polyreactivity (PSR sort gate)” value was “high polyreactivity”.

As for “QVQLVESGGGLVQAGGSLRLSCAASGRTFPQNAMGWYRQAPGKERELVAAISRSGGRTYYADSVKGRFTISRDNAKNTVYLQMNSLKPEDTAVYYCNTDPRYPRYDYSGQGTQVTVSS”, the “polyreactivity (PSR sort gate)” value is “high polyreactivity”.

Regarding “QVQLVESGGGLFQAGGSLRLSCAASGGIFVDNAMGWYRQAPGKERELVAAISWSGGSTYYADSVKGRFTISRYHAKNTVYLQMNSLKPEDTAVYYCAKVYVEDEGYQWADYDYWGQGTQVTVSS”, the “polyreactivity (PSR sort gate)” value is reported as “low polyreactivity”.

Turning to “QVQLVESGGGLVQAGGSLRLSCAASGSTLDIYAMGWYRQAPGKERELVAAITSGGSTNYADSVKGRFTISRDNAKNTVYLQMNSLKPEDTAVYYCNARYFRGYDYWGQGTQVTVSS”, the “polyreactivity (PSR sort gate)” value is “high polyreactivity”.

Consider “QVQLVESGGGLVQAGGSLRLSCASSGSIFGSYAMGWYRQPPGKESELDAAITGIGGSTYYADSVKGRFTISRDNAKNTVYLQMNSLKPEATAVYYCATRDRYRAPVVGGNYWVQGTQVTVSS”, for which the “polyreactivity (PSR sort gate)” value is “high polyreactivity”.

Take “QVQLVESVGGLVQAGGSLRLSCAASGSTFQGNAMGWYIQAPGKERELVAAISRSGGSTYADSVKGRFTISRDNAKNTVYLQMNSLKPEDTAVYYCAAYSGVGYLWFDYWGLGTQVTVSS”: the “polyreactivity (PSR sort gate)” value is “low polyreactivity”.

As to “QVQLVESGGGLVQAGGSLRLTCAASGFIFRSYAMGWYRQAPGKERELVAAINSRAGNTYYADSVKGRFTISRDNAKNTVYLQMNSLKPEDTAVYYCAVRSYSPRSRGMGYWGQGTQVTVSS”, the “polyreactivity (PSR sort gate)” value is “high polyreactivity”.

For the sequence “QVQLVESGGGLVQAGGSLRLSCAASGTTFGQYAKGWYRQAPGKERDLLAAISSGGRTNYADSVKGRFTISRDNAKNTVYLQMNCVKPEDSAVYDCAARYYFPFRRFRRMDYWGQGTQVTVSS”, the “polyreactivity (PSR sort gate)” value is given as “high polyreactivity”.

Take “QVQLVESGGGLVQAGGSLRLSCAASGSIFVDNAMGWYRQAPGIERELVAVITLRSGSTNYADSVKGRFTISRDNAKNTVYLQMNSLKPEDTAVYYCAADDTYHDYQRDTDDDYWGQGTQVTVSS”: the “polyreactivity (PSR sort gate)” value was “low polyreactivity”.

For “QVQLVESGGGLVQAGGSLRLSCAASGFIFDHNARGWYRQAPGKERELVAAITWRGDSTYYADSVKGRFTISRDNAKNTVYLQMNSLKPEDTAVYYCNADAILVYYGKLDYWGQGTQVTVSS”, the “polyreactivity (PSR sort gate)” value is on record as “low polyreactivity”.

Take “QVQLVESGGGLVQAGGSLRLSCAASGFIFDYYAMGWYRQAPGKERELVASISGDDGRTYYADSVTGRFTISRDNAKNTVYLQMNSLKPEDTAVYDCNAEWGVLNYDYWGQGTQVTVSS”: the “polyreactivity (PSR sort gate)” value was “low polyreactivity”.

For “QVQLVESGGGLVQAGGSLRLSCAASGFIFDAYAMGWYRQAPGKERELVAAITRGNTYYADSVKGRFTISRDNAKNTVYLQMNSLKPEDTAVYYCAARYWQSYRSQVTHSSTLDYWGQGTQVTVSS”, the “polyreactivity (PSR sort gate)” value is given as “low polyreactivity”.

With “QVQLVESGGGLVQAGGSLRLSCAASGSTFSWYVMGWYRQAPGKERELVAAISYRGGRTYYADSVKGRFTISRDNAKNTVYLQMNSLKPEDTAVYYCAARGVVDAGRTNRPYDYWGQGTQVTVSS”, the “polyreactivity (PSR sort gate)” value was “low polyreactivity”.

Regarding “QVQLVESGGGLVQAGGSLRLSCAASGYTFSFYAMGWYRQAPGKERELVATISWRGGSTYYADSVKGRFTISRDNAKNTVYLQMNSLKPEDTAVYYCNIVDKTGSKMDYWGQGTQVTVSS”, the “polyreactivity (PSR sort gate)” value is “high polyreactivity”.

For the sequence “QVQLVESGGGLVQAGGSLRLSCAASGITFEDYAMGWYRQAPGKERELVAAISWSGDITYYADSVKGRFTISRDNAKNTVYLQMNSLKPEDTAVYYCAADLSPYGYDYWGQGTQVTVSS”, the “polyreactivity (PSR sort gate)” value is on record as “low polyreactivity”.

For the sequence “QVQLVESGGGLVQAGGSLRLSCAASGRTFYTYAMGWYRQAPGKERELVAGIRTGGGSTYYADSVKGRFTISRDNAKYSVYLQMNSLKPDDTAVYYCAADTYDGYDYWGQGSQVTVSS”, the “polyreactivity (PSR sort gate)” value was “low polyreactivity”.

Consider “QVQLVESGGGLVQAGGSLRLSCAASGRIFGVNAMGWYRQAPGKERELVAAITSSGGSTYYADSVKGRFTISRDHAKNTVYLQMNSLKPEDTAVYYCAAKYWYGKPYGSYGYWGQGTQVTVSS”, for which the “polyreactivity (PSR sort gate)” value is recorded as “high polyreactivity”.
